From the DeepSol protein solubility set come the findings set out here.

The series in a line: soluble on expression in E. coli; label from the status in PepcDB or PDB records.
Consider “MGSDKIHHHHHHMMADERIEVLKDILLELHHGASAESVQERFNQHFKGVSAIEISMMEHELMNADTGITFEDVMGLCNVHANLFKGAIADVDVPDAEQEGHPVKVFKDENLALRAAIMRIRRIIENYTKPENEDFRQEILKGLKHQFDLLGQFYHHYTRKEKLFFPIMERYGHDSPPKVMWGVDDDIRDLFKDAKATLAKLPDGSIEELSQKFEAFAKEFEEMIFKEEAILLMILLESFTQDDWLQIASESDAYGYAILKPTEKWIPHRESFDNEADADTSDNQLADALNQVQDANSPEGTNTKVINTPEGQFTITFKPKEKEAAADRTTQQPFGNGYLSVEQANLILNHLPLEITFVNKDDIFQYYNDSVPAAEMVFKRTPSQVGRNVELCHPPKVLDKVKKVFELLRNGQRDKVNMWFQSERLGKFVYVTYAAVRDQAGDFQGVLEYVQDIKPFFELDSEFNRDI”, for which the “soluble on expression in E. coli” value was “not soluble”.
For the sequence “AIAPGRKRKLAAKTAELAPEAGEGSESTSLVGSADASASTAAGVAHTEQQEMPSGGLHESFLESIPPAASFLEELAWVESLASPSYVAYLCQMRRFDDVVAQRRLTTLQRWRQDPAYRQHVSQPIALFFLEQLCSAEFREALRHPAVAALYERQVDLYRRCYGNLLNTGESRVLR”, the “soluble on expression in E. coli” value is “soluble”.
“MNYTKFDVKNWVRREHFEFYRHRLPCGFSLTSKIDITTLKKSLDDSAYKFYPVMIYLIAQAVNQFDELRMAIKDDELIVWDSVDPCFTVFHQETETFSALSCPYSSDIDQFMVNYLSVMERYKSDTKLFPQGVTPENHLFISALPWVNFDSFNLNVANFTDFFAPVITMAKYQQEGDRLLLPLSVQVHHAVCDGFHVARFINRLQELCNSKLK”: the “soluble on expression in E. coli” value is given as “soluble”.
For “MKFVVASYGTRGDIEPCAAVGLELQRRGHDVCLAVPPNLIGFVETAGLSAVAYGSRDSQEQLDEQFLHNAWKLQNPIKLLREAMAPVTEGWAELSAMLTPVAAGADLLLTGQIYQEVVANVAEHHGIPLAALHFYPVRANGEIAFPARLPAPLVRSTITAIDWLYWRMTKGVEDAQRRELGLPKASTPAPRRMAVRGSLEIQAYDALCFPGLAAEWGGRRPFVGALTMESATDADDEVASWIAADTPPIYFGFGSMPIGSLADRVAMISAACAELGERALICSGPSDATGIPQFDHVKVVRVVSHAAVFPTCRAVVHHGGAGTTAAGLRAGIPTLILWVTSDQPIWAAQIKQLKVGRGRRFSSATKESLIADLRTILAPDYVTRAREIASRMTKPAASVTATADLLEDAARRAR”, the “soluble on expression in E. coli” value is “not soluble”.
“MISILRRGLLVLLAALPLLANAASTPSAHDLVQDTTTRLLADLAANKEKYKQSPNDFYNALNSIVGPVVDADGISRSIMTVKYSRKATPEQMVRFQENFKRSLMQFYGNALLEYNNQGITVSPAKDESGTRTSVDMQVKGNNGAIYPVSYTLEKINDEWKVRNVIINGINIGKLFRDQFADAMQRNGNNLDKTIDGWAGEVAKAKEVTEDAAQKAAQLEHHHHHH”: the “soluble on expression in E. coli” value is on record as “soluble”.
Consider “MGSDKIHHHHHHMRISLGPLVYCWQKQQVMAFYQQVAASQIPLVYLGEAVCSRRRELKWGDYFELARMLKQAGKEVVISTLALIEASSEYTELKRQVDNGEFMIEANDMAAVYLAKEHKLPFVCGASINNYNRASLDILHGFGMQRFVMPVELSKAWLQHVIQNKPAFEVEVFGHGYLPLAHSARCFTARHKQLTKDSCETICRQYSKGLLAQTQEMQPLLRLNGIQTQSAACLDLSSEIAAMNTMGVDVFRVSPSGTESIVRAESLIEALNMPEMALNAPIKGEQCDGYWFGEAGLTIHHAT”, for which the “soluble on expression in E. coli” value is recorded as “not soluble”.
Regarding “MAHHHHHHMLCRNVSRSYSARRRCRPSVCVAFGALLVEPPQAAYLRRCAVSSRATATAASLSSDHASLSVCKRCEHTTTIATPPERVLTTKEQVDELMDSFAEACELITDAKESVGTTYFADDMEDAEKQTHDVLNRWESLQAALERKGTAEELQKVRNMYDLKIKQLKAELEAVREAGGAG”, the “soluble on expression in E. coli” value is “not soluble”.
As for “GQSAKEAIEAANADFVKAYNSKDAAGVASKYMDDAAAFPPDMARVDGRQNIQKLWQGAMDMGISELKLTTLDVQESGDFAFESGSFSLKAPGKDSKLVDAAGKYVVVWRKGQDGGWKLYRDIWNSDPAK”, the “soluble on expression in E. coli” value is listed as “soluble”.
The result for “MGSDKIHHHHHHALGDQTLRKGQSHPDVKELQEALKKKGFFNYHTSTGYFGSITEDAVREFQMKHGLQVDGIAGPQTLNALLSQMNGNNGGQQTSSSAPNSTSNSTILRFGSSGQAVRDLQEKLKAKGYYNHSITGQYGRITTEAVREFQRANRLTVDGIAGPQTLAALTNQAPAASAPQYNAPVQQTTVLRQGSRGDAVRDLQRSLKDLGYYKSSIDGIFGAGTTTAVREFQRKMGLTVDGVAGPQTLNALHVNPTPNTSNGQSSSSGGNTASSGNRGATITNIVANASELIGTPYVWGGTTPRGFDCSGFVQYVFAQQGVSIPRTVAQMWNAGTSVSQPSVGDIVFFDTTGGPSHNGIYIGNNQFIHSGSSTGVTIASMNNSYWASRYLGAKRLY” reads “not soluble”; that for “MGNKITVEVTVYAAIEKVWKYWNEPAHIMKWCQASPEWHVPAAQNDLKAGGTFTTTMAAKDGSMSFDFGGVYDQVKTNDLIEYTIGDGRKVRIVFTHTGDTTNIVESFDPEETNPRELQQSGWQAILNSFKSYTENNLEHHHHHH”, “soluble”.
For “QFLFSMSTGPFICTVKDNQVFVANLPWTMLEGDDIQVGKEFAARVEDCTNVKHDMAPTCTKPPPFCGPQDMKMFNFVGCSVLGNKLFIDQKYVRDLTAKDHAEVQTFREKIAAFEEQQENQPPSSGMPHGAVPAGGLSPPPPPSFCTVQ”, the “soluble on expression in E. coli” value was “soluble”.
On to “MSGEGDTTLKAICYKPGSLQLLDQRKLPLETIYLEIRDASDGWSAIQEMVVRGAPAIAIAAALSLAVEVFNFHGFDGSASDAVAFLENKLDYLVSSRPTAVNLADAALKLKHVIAKALATATEAKSIFKAYIEASEDMLEDDVVSNKAIGNFGLSLLRQQAKNPDKLSVLTHCNTGSLATAGYGTALGVIRALHTQGILERAYCTETRPFNQGSRLTAFELVHEKIPATLIADSAAAALMKDGRVDGVIVGADRVASNGDTANKIGTYSLALCAKHHGIPFYVAAPLTSVDLSLSSGKEIVIEERSPKELMHTHGGLGERIAAPGISVWNPAFDMTPAELIAGIITEKGVITKNGNDTFDISSFAKKITGNSSR”, for which the “soluble on expression in E. coli” value is recorded as “soluble”.
On to “GPGSMSAAVTWLQNSLGIDVTGEWARHVHLNVGGTLYTTRRYTLRELKDHRIFGPILDGHAHRCEDGSFLIDRDGSLFRYIIAYLRDGRLSVPENFAEWDMLLQEVRYYELPAMEKSVMDHFEFQQSVFRRQLPHGVYVWWPPASSQIEEGATVKAAPCDCPASVPPPPLSLFALPITDSATGRCEARGATEDQTRALEKVHVEAAADAATRSSAGAAPSSCSSASMSVRIVPPLPGLTVEMSSGRRVMFRETQVLQDLDQLVTVLLTAYGFSIQHWDTERGRVLLTLPGLM”, for which the “soluble on expression in E. coli” value is reported as “not soluble”.
Turning to “MIGRKEKERERPYYRDPDDPEYIKDLQRPAVIKEDLSEMERRKRVQQILESKSFCHELEEVIRQECDTARTDPDHLQVLQKLSDLTVPQGNMSFGNLHTYGGNTIAIADLRGNEKYSKAERIQRNKLACLFRLADLFQWSQGIHNEISYRTNDEDNTFLMNPFGLLYHEITAATIVKIDENGKILDCGTLKAGVNQPAFLLHSAIYKAHPMVRCILHMHTAIVAAVASMKCGLLPLCKEAMVLGPVGYHDYQDIGDDDIQFDEIIANLGDKNVLFLRNQGFLVVGDTIEHATFLANNTVIACETQVRAARAGLDNLIIPEEKAIQRAFRNSRNTNSLKRNGTVDWRVGELEWESWMRVLDHANFQTGHVYRQPQLRPKSAMSTSMVNNNDVAVPPTTSAYGQIDETNLESVSAHRLALLRKEQERVRWMNSPNAYQKVEFLEYGADNPKKITKWVHDVNVPSASGTPVKISSVHQFSPASSNPKEFKEKQKAIKENNRLGTLSAGPQSQILDSVTYEDIALLIKPDNDGTVGQSSTADRAILIGTASKGIIDRQFQHHAQVYHQIYAPNPFSVETDADIKKYVDMVKAKNSQSAPVSARSGYSQYDEVEADTVSLMQGVREHKLSQAALSASDDGLNAGISPNNVRTSEESVNTSYMSQSVVFDYPDILRPIYRQETYV”, the “soluble on expression in E. coli” value was “not soluble”.
“MGSDKIHHHHHHMIFSMSSLHDMRFICLRTAPLKNSAYLLSALLIIACQPTSPTEALTSENNEMVDMPLISADSVTITPDHILSIKPTRYQPSLGLQGRIDSIKQINLVAGQPLTVEQVLVSENQWVKKGTPLLTVRRQEIFNKPTMSDDPATDVDASLNTTASNIDRASASDNTSQTSDLITLRARFSGRVENLSVQAGQKIEAQTALLKLSDATELHFISTLPIEAESQISVGQTVNFTAEDRVDKFTGQVSKVQALKQPIQLLVYVNVINNEVSRNQLAPGMQVTGRVDYGQIEVGTIVPKNALHNVDLTQIQVPPYKPLRSLTANIWIIGQDQRLTRQPIEVIEYDPLTKQYLIAGISSDSLICLANLPIESKGKKVVVS”: the “soluble on expression in E. coli” value is “not soluble”.
In the case of “MSLILENEVIWDPERYVLGNYIQNKINDVFLKTIHSKLSGNILDIGCGDGHYTSLLAGKVKHGQILGIDSSEQMIMHANQQWARTGLSFEVHNIEEFHQPQSFDLVLSFWCLHWTNIHISFPNIFHLLKREGKLYAVMSSFSDHSILQTWKELAKQNLYRDLTKQYISPINEQYFYGVINLLNRLPFKRIKLDLKTCRVHLPHIDYYKNLLLTMPFIKRVPSEITDTLVEDMLKAFQTICDRKYGGELYYETRPIFLEAIKEGHHHHHH”, the “soluble on expression in E. coli” value is on record as “not soluble”.
The result for “MTASHGQAAAIPTVTLNDDNTLPVVGIGVGELSDSEAERSVSAALEAGYRLIDTAAAYGNEAAVGRAIAASGIPRDEIYVTTKLATPDQGFTSSQAAARASLERLGLDYVDLYLIHWPGGDTSKYVDSWGGLMKVKEDGIARSIGVCNFGAEDLETIVSLTYFTPAVNQIELHPLLNQAALREVNAGYNIVTEAYGPLGVGRLLDHPAVTAIAEAHGRTAAQVLLRWSIQLGNVVISRSANPERIASNLDVFGFELTADEMETLNGLDDGTRFRPDPATYTGS” reads “soluble”; that for “MRNPIMVTTEVAGEPPGQGRKWAAHGTMAAPRVHTDYHPGGGSACSSVKVRSHVGHTGVFFFVDQDPLAVSLTSQSLIPPLIKPGLLKAWGFLLLCAQPSANGHSLCCLLYTDLVSSHELSPFRALCLGPSDAPSACASCNCLASTYYLLEHHHHHH”, “not soluble”.
With “MKKSKRKNAQAQEAQETEVLVQEEAEELPEFPEGEPDPDLEDPDLTLEDDLLDLPEEGEGLDLEEEEEDLPIPKISTSDPVRQYLHEIGQVPLLTLEEEVELARKVEEGMEAIKKLSEITGLDPDLIREVVRAKILGSARVRHIPGLKETLDPKTVEEIDQKLKSLPKEHKRYLHIAREGEAARQHLIEANLRLVVSIAKKYTGRGLSFLDLIQEGNQGLIRAVEKFEYKRRFKFSTYATWWIRQAINRAIADQARTIRIPVHMVETINKLSRTARQLQQELGREPTYEEIAEAMGPGWDAKRVEETLKIAQEPVSLETPIGDEKDSFYGDFIPDEHLPSPVDAATQSLLSEELEKALSKLSEREAMVLKLRKGLIDGREHTLEEVGAFFGVTRERIRQIENKALRKLKYHESRTRKLRDFLD”, the “soluble on expression in E. coli” value is given as “soluble”.
On to “MDILKKIEKYREEEQRLKWEGTFADYLEIIKENPMVAQSAHSRVFNMIKDSGIEEIDGRKKYSFFDRELFGLEESLERLVEEYFHPAAKRLDVRKRILLLMGPVSGGKSTLVTMLKKGLEAYTLTDNGAVYAIKGCPMHEDPLHLIPHHLRDDFYREYGIRIEGSLSPLNVMRLEEEYGGRIEDVKVERIFFSEDKRTGIGTFSPSDPKSQDIADLTGSIDFSTIAEYGSESDPRAYRFDGELNKANRGMMEFQEMLKCDEKFLWHLLSLTQEGNFKAGRFALISADELIVAHTNETEYRSFISNKKNEALHSRIIVMPVPYNLKVSEEERIYEKMIAESDVADVHIAPHTLKVAAMFSILTRLKEPKRSD”, for which the “soluble on expression in E. coli” value is recorded as “not soluble”.
